Assay [1] concerns the target T1, SARS-CoV-2 Spike S1 protein (SARS-CoV-2, UniProt P0DTC2 16-685).
The target of assay [2] is T2, HcoV-OC43 S protein (HcoV-OC43, UniProt P36334 14-1297).
T2 sequence: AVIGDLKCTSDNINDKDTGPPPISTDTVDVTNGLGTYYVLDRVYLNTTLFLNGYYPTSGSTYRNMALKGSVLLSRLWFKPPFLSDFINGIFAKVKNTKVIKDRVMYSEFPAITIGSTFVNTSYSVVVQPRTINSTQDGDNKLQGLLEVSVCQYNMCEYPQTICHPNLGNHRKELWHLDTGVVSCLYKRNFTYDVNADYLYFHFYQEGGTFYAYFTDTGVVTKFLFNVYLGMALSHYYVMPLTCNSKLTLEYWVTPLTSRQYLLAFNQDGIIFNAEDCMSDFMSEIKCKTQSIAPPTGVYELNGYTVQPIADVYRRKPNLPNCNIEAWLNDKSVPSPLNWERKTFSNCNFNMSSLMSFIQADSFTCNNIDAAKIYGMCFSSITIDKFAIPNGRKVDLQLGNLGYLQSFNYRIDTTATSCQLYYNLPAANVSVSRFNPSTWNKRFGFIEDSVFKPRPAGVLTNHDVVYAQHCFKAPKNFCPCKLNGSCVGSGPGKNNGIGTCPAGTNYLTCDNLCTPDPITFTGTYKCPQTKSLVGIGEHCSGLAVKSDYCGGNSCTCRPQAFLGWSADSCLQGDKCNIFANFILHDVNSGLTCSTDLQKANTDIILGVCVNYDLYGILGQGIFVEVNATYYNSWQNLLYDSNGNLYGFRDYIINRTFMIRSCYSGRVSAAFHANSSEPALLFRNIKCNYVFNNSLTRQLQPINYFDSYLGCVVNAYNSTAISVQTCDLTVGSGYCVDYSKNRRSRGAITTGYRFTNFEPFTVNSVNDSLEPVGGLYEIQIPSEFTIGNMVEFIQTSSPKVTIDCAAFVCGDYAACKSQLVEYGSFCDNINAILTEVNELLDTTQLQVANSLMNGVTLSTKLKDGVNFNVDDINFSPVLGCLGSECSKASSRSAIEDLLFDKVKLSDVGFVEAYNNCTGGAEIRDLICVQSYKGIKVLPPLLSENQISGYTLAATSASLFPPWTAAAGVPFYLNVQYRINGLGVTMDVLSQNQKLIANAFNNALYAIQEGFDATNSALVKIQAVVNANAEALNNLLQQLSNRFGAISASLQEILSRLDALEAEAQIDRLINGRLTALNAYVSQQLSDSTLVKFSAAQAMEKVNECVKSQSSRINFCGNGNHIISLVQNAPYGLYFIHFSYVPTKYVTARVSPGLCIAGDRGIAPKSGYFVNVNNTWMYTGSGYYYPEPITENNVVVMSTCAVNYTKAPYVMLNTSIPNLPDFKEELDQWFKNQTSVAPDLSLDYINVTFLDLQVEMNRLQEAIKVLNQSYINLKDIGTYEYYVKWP
In words: direct ELISA, OD450. In general terms: In an ELISA, binding on a coated surface is turned into a signal by an enzyme label.

Assay [3] deals with T3, RBD (receptor binding domain) of the SARS-CoV-2 S1 (SARS-CoV-2, UniProt P0DTC2 319-541).
T3 construct: domain: RBD; also called RBD domain protein
Description: direct antigen ELISA, RBD coated, antibody titrated, anti-rabbit IgG-HRP.

Assay [4] concerns the target T4, HKU1 S1 and S2 protein (HKU1, UniProt Q5MQD0 13-1300).
T4 construct: domain: S1 and S2
T4 sequence: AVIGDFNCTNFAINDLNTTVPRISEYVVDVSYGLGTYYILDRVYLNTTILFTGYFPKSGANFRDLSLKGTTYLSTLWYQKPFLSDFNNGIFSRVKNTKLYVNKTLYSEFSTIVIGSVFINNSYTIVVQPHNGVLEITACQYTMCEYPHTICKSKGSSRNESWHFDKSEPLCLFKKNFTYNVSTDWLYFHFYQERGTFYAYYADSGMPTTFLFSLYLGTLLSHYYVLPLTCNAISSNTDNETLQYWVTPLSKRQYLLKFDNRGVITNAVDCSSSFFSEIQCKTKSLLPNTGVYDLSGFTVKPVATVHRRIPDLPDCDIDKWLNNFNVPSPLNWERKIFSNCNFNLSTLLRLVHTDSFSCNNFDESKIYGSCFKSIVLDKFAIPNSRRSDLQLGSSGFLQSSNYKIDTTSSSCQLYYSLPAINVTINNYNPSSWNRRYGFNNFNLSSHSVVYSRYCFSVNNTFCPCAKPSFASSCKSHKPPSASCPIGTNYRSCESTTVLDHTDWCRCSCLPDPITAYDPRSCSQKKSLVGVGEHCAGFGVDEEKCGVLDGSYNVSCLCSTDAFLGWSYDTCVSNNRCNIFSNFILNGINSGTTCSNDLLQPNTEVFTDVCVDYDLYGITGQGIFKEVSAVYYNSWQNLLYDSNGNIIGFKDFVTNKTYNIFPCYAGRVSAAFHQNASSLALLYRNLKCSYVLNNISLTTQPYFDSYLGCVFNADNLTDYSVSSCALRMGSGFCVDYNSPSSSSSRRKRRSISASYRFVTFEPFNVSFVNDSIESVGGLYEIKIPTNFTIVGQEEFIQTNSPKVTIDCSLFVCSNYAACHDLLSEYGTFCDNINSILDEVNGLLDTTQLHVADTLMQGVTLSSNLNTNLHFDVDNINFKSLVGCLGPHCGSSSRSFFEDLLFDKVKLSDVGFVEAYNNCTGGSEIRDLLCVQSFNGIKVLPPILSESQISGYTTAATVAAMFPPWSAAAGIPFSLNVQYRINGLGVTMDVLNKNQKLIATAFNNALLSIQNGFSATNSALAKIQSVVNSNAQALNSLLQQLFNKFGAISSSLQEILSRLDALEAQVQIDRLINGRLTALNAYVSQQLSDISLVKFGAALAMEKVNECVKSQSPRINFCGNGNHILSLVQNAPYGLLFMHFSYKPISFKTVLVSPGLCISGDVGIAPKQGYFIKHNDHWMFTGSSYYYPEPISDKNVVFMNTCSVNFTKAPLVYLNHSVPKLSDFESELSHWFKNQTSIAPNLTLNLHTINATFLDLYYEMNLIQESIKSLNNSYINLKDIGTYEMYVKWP
In words: direct ELISA, OD450.

The target in assay [5] is T5, SARS S1 and S2 protein (SARS, UniProt P59594 14-1195).
T5 construct: domain: S1 and S2
In words: direct ELISA, OD450.

Assay [6] concerns the target T1, SARS-CoV-2 Spike S1 protein. The source holds these as a separate data set.

Broadly, the Kd is the equilibrium constant for the complex coming apart. Broadly, the koff is the first-order rate constant of dissociation. The low end stands for slow dissociation, the high end for fast dissociation. The term kon denotes the rate constant with which the complex forms. A lower kon goes with slower complex formation. One may read the EC50 (read off the curve) as the concentration needed to bring the measured effect to its halfway point.

B1: rabbit monoclonal antibody 1D2 against the SARS-CoV-2 S1 (antibody, V domains shown)
VH: QSVEESGGRLVTPGTSLTLTCTVSGIDIETYWMSWVRQAPGKGLEWIAIITSHDHSGYANWAEGRFTISKTSTTVTLTITDLQPSDTGTYFCAKDVGHSTYDLWGPGTLVTVSS
VL: AAVLTQTPSPVSAAVGGTVTISCQSSESVLSNNRLSWYQQKPGQPPKLLIYAASTLASGVPSRFKGRGSGTQFTLTISDVQCDDAAMYVCAGAFSGSSDTRAFGGGTEVVVKG
As for B1, in assay [1], binding was characterised by a dissociation constant (Kd) of 3.55 nM, the koff was found to be 0.000259 s⁻¹ and the kon was determined as 72900 M⁻¹ s⁻¹. Moreover, the binding result in assay [2] is reported as “no binding”. Also, the binding result in assay [3] is listed as “no binding (tested: 1000 ng/ml)”.

B2: rabbit monoclonal antibody 1A3 against the SARS-CoV-2 S1 (antibody, V domains shown)
VH: QSLEESGGRLVTPGTPLTLTCTVSGFSFSSYHMGWVRQAPGEGLEWIGTLIGIAGNTYYASWAKGRFSISKTSTTVDLKMTSPTTEDTATYWCARIVTATFEFWGPGTLVTVSS
VL: AQVLTQTPSPVSAAVGGTVTISCQASQSVNMNLLSWFQQKPGQPPKLLIYQASNLASGVSARFKGSGSGTQFTLTINEIQCDDAATYYCQGDMGGWMFPFGGGTEVVVTG
Molecule B2 yielded a Kd in assay [1] of 0.537 nM. The koff in assay [1] came to 9.34e-05 s⁻¹. This molecule also registered a kon in assay [1] of 174000 M⁻¹ s⁻¹. Moreover, the binding result is reported as “no binding” in assay [4], “no binding” in assay [5], “no binding” in assay [2] and “no binding (tested: 1000 ng/ml)” in assay [3].

B3: rabbit monoclonal antibody 9A5 against the SARS-CoV-2 S1 (antibody, V domains shown)
VH: QSVEESGGRLVTPGTPLTLTCTVSGFSLSAYQMIWVRQTPGKGLEYIGIMHTGTSAYYANWAKGRFTISKTSSTTVDLKMTSPTTEDTATYFCGRNLNEGFTGAYPFNLWGPGTLVAVSS
VL: DVVMTQTPASVEAAVGGTVTIKCQASQSIGSNLAWYQKKPGQPPKLLIYQASNLASGVPSRFKGSGSGTQFTLTISDLECADAATYYCQMNYYISSSYTYTFGGGTEVVVKG
B3: in assay [1], the Kd was determined as 0.87 nM, the koff came to 0.000115 s⁻¹ and the association rate constant (kon) worked out at 132000 M⁻¹ s⁻¹. Further, the binding result in assay [4] is “no binding”. The binding result in assay [5] is reported as “no binding”. Moreover, the binding result in assay [2] is given as “no binding”.

B4: rabbit monoclonal antibody 1H1 against the SARS-CoV-2 S1 (antibody, V domains shown)
VH: QSLEESGGDLVKPGASLTLTCTASGFSFSSGYDMCWVRQAPGKGLEWIACIGTGSSGNIYYASWAKGRFTISKTSSTTVTLQMTSLTAADTATYFCARDDADYAGPDYFNLWGPGTLVTVSS
VL: DIVMTQTPASVSEPVGGTVTIKCQASESISNWLAWYQQKPGQPPKLLIYAAFTLASGVPSRFKGSGSGTQFTLTINGVECADAATYYCQQTYSSRDVDNVFGGGTEVVVKG
Regarding B4, the Kd in assay [1] was 2.06 nM. Also, the koff in assay [1] turned out to be 0.000273 s⁻¹. Moreover, the kon in assay [1] was determined as 133000 M⁻¹ s⁻¹. Further, the binding result in assay [4], in assay [5] and in assay [2] was “no binding” throughout. In addition, the concentration giving a half-maximal response (EC50 (read off the curve)) in assay [6] is roughly 0.04 µg/mL.

B5: rabbit monoclonal antibody 7G5 against the SARS-CoV-2 S1 (antibody, V domains shown)
VH: QEQLEESGGDLVKPGASLTLTCTASGFSFSSAYYMCWVRQAPGKGLEWIACIGVDSGGNSYYASWAKGRFTISTTSSTTVTLQMTSLTAADKATYFCTRSFSLWGPGTLVTISS
VL: RKWLTQTASSVSAAVGGTVTISCQASQSVYNNDNLAWFQQRPGQPPKLLIYLASNLASGVPPRFSGSGSGTQFTLTISDVQCDDAATYYCLGGYDCSNADCHAFGGGTEVVVKG
B5 gave a dissociation constant Kd in assay [1] of 2.14 nM. In assay [1], this molecule returned an off-rate constant (koff) of 0.000261 s⁻¹. The kon in assay [1] is 122000 M⁻¹ s⁻¹. Besides, the binding result in assay [4], in assay [5] and in assay [2] was “no binding” throughout.

The values above are taken from patent US20220056111A1 (YUROGEN BIOSYSTEMS, published 2022).
